The numbers were not newly measured in publication PMC4980809, which cites them from elsewhere.

This data set deals with titin ZR7 (Homo sapiens) (UniProt Q8WZ42).
titin ZR7 (Homo sapiens), sequence (Q8WZ42 692-740): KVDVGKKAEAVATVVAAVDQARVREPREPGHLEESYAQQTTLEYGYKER

alpha-actinin-2 EF3/4 domain, sequence (P35609 823-894): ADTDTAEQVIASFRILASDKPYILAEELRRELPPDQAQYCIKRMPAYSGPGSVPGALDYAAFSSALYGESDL

Turning to “alpha-actinin-2 EF3/4 domain (from UniProt P35609)”, the Kd was 0.38 µM.
